{"source": "patent US20210115146A1", "binders": {"B1": {"name": "W562-BMK3 (antibody, from another filing, human IgG1, V domains shown)", "VH": "QVQLQESGPGLVKPSETLSLTCTVSGLSLASNSVSWIRQPPGKGLEWMGVIWNHGGTDYNPSIKSRLSISRDTSKSQVFLKMNSLTAADTAMYFCVRKGGIYFDYWGQGVLVTVSS", "VL": "DTVLTQSPSLAVSPGERATISCRASESVSTLMHWYQQKPGQQPKLLIYLASHRESGVPARFSGSGSGTDFTLTIDPMEAEDTATYYCQQSRNDPWTFGQGTKLELKR"}}, "key": {"[1]": {"target": "Macaca fascicularis EGFR (cell surface) (Macaca fascicularis)", "assay": "FACS binding to W562.CHOK1.cPro1.H6 cells (monkey EGFR), upper panel and table"}, "[2]": {"target": "mouse EGFR (cell surface) (mouse) (UniProt Q01279)", "assay": "FACS binding to W562-CHO-K1.mPro1.F3 cells (mouse EGFR), lower panel and table; the curve is still rising at 100 nM"}, "[3]": {"target": "Macaca fascicularis EGFR (cell surface) (Macaca fascicularis)", "assay": "FACS binding to W562-CHO-K1.cPro1.H6 cells (monkey EGFR), lower panel and table"}, "[4]": {"target": "mouse EGFR (cell surface) (mouse) (UniProt Q01279)", "assay": "FACS binding to W562-CHO-K1.mPro1.F3 cells (mouse EGFR), lower panel and table"}, "[5]": {"target": "mouse EGFR (cell surface) (mouse) (UniProt Q01279)", "assay": "FACS binding to mouse EGFR cells; the table head prints W562.CHOK1.cPro1.H6"}}}
{"binder": "B1", "values": [{"measurement": "EC50", "setting": "[1]", "value": 1.47, "unit": "nM"}, {"measurement": "Top MFI", "setting": "[1]", "value": 37500, "unit": "MFI"}, {"measurement": "EC50", "setting": "[2]", "value": 6.41, "unit": "nM"}, {"measurement": "EC50", "setting": "[3]", "value": 1.24, "unit": "nM"}, {"measurement": "TOP MFI", "setting": "[3]", "value": 16000, "unit": "MFI"}, {"measurement": "TOP MFI", "setting": "[4]", "value": 32800, "unit": "MFI"}, {"measurement": "EC50", "setting": "[5]", "value": 2.42, "unit": "nM"}, {"measurement": "Top MFI", "setting": "[5]", "value": 31000, "unit": "MFI"}]}
